How the values were obtained:
SntA = system: T1, SntA; experiment: HPLC at […] nm of […]'-AMP formed, initial rates, Michaelis-Menten fit; format: biochemical, Streptococcus suis; details: 50 mM Tris-HCl pH 7.5, 2 mM MnCl2, 0.1 mg/mL BSA, 37 °C; read-out: K m ^1 /
T1 construct: cell wall-attached protein of 813 residues; preparation from earlier work [10]

[1] = system: Nc1ccn([C@@H]2O[C@H](CO)[C@H]3OP(=O)(O)O[C@H]32)c(=O)n1; experiment: purified protein; details: 50 mM Tris-HCl pH 7.5, 2 mM MnCl2, 0.1 mg/mL BSA, 37 °C, excess alkaline phosphatase
Description: (§1) coupled alkaline phosphatase, colorimetric phosphate release, initial rates, Michaelis-Menten fit on S. enterica CpdB

[2] = system: Nc1nc2c(ncn2[C@@H]2O[C@@H]3COP(=O)(O)O[C@H]4[C@@H](O)[C@H](n5cnc6c(N)ncnc65)O[C@@H]4COP(=O)(O)O[C@H]3[C@H]2O)c(=O)[nH]1; experiment: purified protein; details: 50 mM Tris-HCl pH 7.5, 2 mM MnCl2, 0.1 mg/mL BSA, 37 °C
[3] = system: Nc1nc2c(ncn2[C@@H]2O[C@@H]3CO[P@](=O)(O)O[C@H]4[C@@H](O)[C@H](n5cnc6c(=O)[nH]c(N)nc65)O[C@@H]4CO[P@](=O)(O)O[C@H]3[C@H]2O)c(=O)[nH]1; experiment: purified protein; details: 50 mM Tris-HCl pH 7.5, 2 mM MnCl2, 0.1 mg/mL BSA, 37 °C
[4] = system: Nc1nc2c(ncn2[C@@H]2O[C@H](CO)[C@@H](OP(=O)(O)O)[C@H]2O)c(=O)[nH]1; experiment: purified protein; details: 50 mM Tris-HCl pH 7.5, 2 mM MnCl2, 0.1 mg/mL BSA, 37 °C
Description: (§2) colorimetric phosphate release, initial rates, Michaelis-Menten fit on S. enterica CpdB

[5] = system: Nc1nc2c(ncn2[C@@H]2O[C@H](CO)[C@H]3OP(=O)(O)O[C@H]32)c(=O)[nH]1; experiment: purified protein; details: 50 mM Tris-HCl pH 7.5, 2 mM MnCl2, 0.1 mg/mL BSA, 37 °C, excess alkaline phosphatase
Description: as §1

[6] = system: Nc1ncnc2c1ncn2[C@@H]1O[C@@H]2COP(=O)(O)O[C@H]3[C@@H](O)[C@H](n4cnc5c(N)ncnc54)O[C@@H]3COP(=O)(O)O[C@H]3[C@@H](O)[C@H](n4cnc5c(N)ncnc54)O[C@@H]3COP(=O)(O)O[C@H]3[C@@H](O)[C@H](n4cnc5c(N)ncnc54)O[C@@H]3COP(=O)(O)O[C@H]2[C@H]1O; experiment: purified protein; details: 50 mM Tris-HCl pH 7.5, 2 mM MnCl2, 0.1 mg/mL BSA, 37 °C
[7] = system: Nc1ncnc2c1ncn2[C@@H]1O[C@@H]2COP(=O)(O)O[C@H]3[C@@H](O)[C@H](n4cnc5c(N)ncnc54)O[C@@H]3COP(=O)(O)O[C@H]3[C@@H](O)[C@H](n4cnc5c(N)ncnc54)O[C@@H]3COP(=O)(O)O[C@H]3[C@@H](O)[C@H](n4cnc5c(N)ncnc54)O[C@@H]3COP(=O)(O)O[C@H]3[C@@H](O)[C@H](n4cnc5c(N)ncnc54)O[C@@H]3COP(=O)(O)O[C@H]3[C@@H](O)[C@H](n4cnc5c(N)ncnc54)O[C@@H]3COP(=O)(O)O[C@H]2[C@H]1O; experiment: purified protein; details: 50 mM Tris-HCl pH 7.5, 2 mM MnCl2, 0.1 mg/mL BSA, 37 °C
[8] = system: Nc1ncnc2c1ncn2[C@@H]1O[C@H](CO)[C@@H](OP(=O)(O)O)[C@H]1O; experiment: purified protein; details: 50 mM Tris-HCl pH 7.5, 2 mM MnCl2, 0.1 mg/mL BSA, 37 °C
Description: as §2

[9] = system: Nc1ncnc2c1ncn2[C@@H]1O[C@H](CO)[C@H]2OP(=O)(O)O[C@H]21; experiment: purified protein; details: 50 mM Tris-HCl pH 7.5, 2 mM MnCl2, 0.1 mg/mL BSA, 37 °C, excess alkaline phosphatase
Description: as §1

[10] = system: Nc1ncnc2c1ncn2[C@@H]1O[C@H](COP(=O)(O)OP(=O)(O)O)[C@@H](O)[C@H]1O; experiment: purified protein; details: 50 mM Tris-HCl pH 7.5, 2 mM MnCl2, 0.1 mg/mL BSA, 37 °C
Description: as §2

[11] = system: Nc1ncnc2c1ncn2[C@@H]1O[C@H](COP(=O)(O)OP(=O)(O)OP(=O)(O)OC[C@H]2O[C@@H](n3cnc4c(N)ncnc43)[C@H](O)[C@@H]2O)[C@@H](O)[C@H]1O; experiment: purified protein; details: 50 mM Tris-HCl pH 7.5, 2 mM MnCl2, 0.1 mg/mL BSA, 37 °C, excess alkaline phosphatase
Description: as §1

[12] = system: Nc1ncnc2c1ncn2[C@@H]1O[C@H](COP(=O)(O)OP(=O)(O)OP(=O)(O)OP(=O)(O)OC[C@H]2O[C@@H](n3cnc4c(N)ncnc43)[C@H](O)[C@@H]2O)[C@@H](O)[C@H]1O; experiment: purified protein; details: 50 mM Tris-HCl pH 7.5, 2 mM MnCl2, 0.1 mg/mL BSA, 37 °C, excess alkaline phosphatase
Description: as §1

[13] = system: Nc1ncnc2c1ncn2[C@@H]1O[C@H](COP(=O)(O)O[C@H]2[C@@H](O)[C@H](n3cnc4c(N)ncnc43)O[C@@H]2COP(=O)(O)O)[C@@H](O)[C@H]1O; experiment: purified protein; details: 50 mM Tris-HCl pH 7.5, 2 mM MnCl2, 0.1 mg/mL BSA, 37 °C
[14] = system: O=[N+]([O-])c1ccc(OP(=O)(O)Oc2ccc([N+](=O)[O-])cc2)cc1; experiment: purified protein; details: 50 mM Tris-HCl pH 7.5, 2 mM MnCl2, 0.1 mg/mL BSA, 37 °C, excess alkaline phosphatase
Description: as §1

[15] = system: O=c1ccn([C@@H]2O[C@H](CO)[C@@H](OP(=O)(O)O)[C@H]2O)c(=O)[nH]1; experiment: purified protein; details: 50 mM Tris-HCl pH 7.5, 2 mM MnCl2, 0.1 mg/mL BSA, 37 °C
Description: as §2

[16] = system: O=c1ccn([C@@H]2O[C@H](CO)[C@H]3OP(=O)(O)O[C@H]32)c(=O)[nH]1; experiment: purified protein; details: 50 mM Tris-HCl pH 7.5, 2 mM MnCl2, 0.1 mg/mL BSA, 37 °C, excess alkaline phosphatase
Description: as §1

[17] = system: [H][C@@]1(O)[C@]2([H])OP(=O)(O)OC[C@@]3([H])O[C@@]([H])(n4cnc5c(N)ncnc54)[C@]([H])(O)[C@]3([H])OP(=O)(O)OC[C@@]2([H])O[C@@]1([H])n1cnc2c(N)ncnc21; experiment: purified protein; details: 50 mM Tris-HCl pH 7.5, 2 mM MnCl2, 0.1 mg/mL BSA, 37 °C

Nc1ncnc2c1ncn2[C@@H]1O[C@@H]2COP(=O)(O)O[C@H]3[C@@H](O)[C@H](n4cnc5c(N)ncnc54)O[C@@H]3COP(=O)(O)O[C@H]3[C@@H](O)[C@H](n4cnc5c(N)ncnc54)O[C@@H]3COP(=O)(O)O[C@H]3[C@@H](O)[C@H](n4cnc5c(N)ncnc54)O[C@@H]3COP(=O)(O)O[C@H]3[C@@H](O)[C@H](n4cnc5c(N)ncnc54)O[C@@H]3COP(=O)(O)O[C@H]3[C@@H](O)[C@H](n4cnc5c(N)ncnc54)O[C@@H]3COP(=O)(O)O[C@H]2[C@H]1O [c-hexa-AMP]
Km (SntA): 2.63 ± 0.88 µM

Nc1ncnc2c1ncn2[C@@H]1O[C@@H]2COP(=O)(O)O[C@H]3[C@@H](O)[C@H](n4cnc5c(N)ncnc54)O[C@@H]3COP(=O)(O)O[C@H]3[C@@H](O)[C@H](n4cnc5c(N)ncnc54)O[C@@H]3COP(=O)(O)O[C@H]3[C@@H](O)[C@H](n4cnc5c(N)ncnc54)O[C@@H]3COP(=O)(O)O[C@H]2[C@H]1O [c-tetra-AMP]
Km (SntA): 262 ± 62.1 µM

S. enterica CpdB (Salmonella enterica subsp. enterica serovar Typhimurium str. LT2)
Km [1]: 4.52 ± 0.69 µM | kcat [1]: 146 ± 9.39 s⁻¹ | kcat/Km [1]: 3.32e+07 M⁻¹ s⁻¹ | Km [2]: 2.13 ± 0.32 µM | kcat [2]: 0.3 ± 0.03 s⁻¹ | kcat/Km [2]: 197000 M⁻¹ s⁻¹ | Km [3]: 4.12 ± 0.98 µM | kcat [3]: 0.09 ± 0.01 s⁻¹ | kcat/Km [3]: 22400 M⁻¹ s⁻¹ | Km [4]: 4.66 ± 1.34 µM | kcat [4]: 219 ± 48.7 s⁻¹ | kcat/Km [4]: 5.23e+07 M⁻¹ s⁻¹ | Km [5]: 7.52 ± 1.46 µM | kcat [5]: 120 ± 4.74 s⁻¹ | kcat/Km [5]: 1.63e+07 M⁻¹ s⁻¹ | Km [6]: 18.44 ± 4.95 µM | kcat [6]: 0.042 ± 0.001 s⁻¹ | kcat/Km [6]: 2370 M⁻¹ s⁻¹ | Km [7]: 24.24 ± 7.60 µM | kcat [7]: 0.006 ± 0.001 s⁻¹ | kcat/Km [7]: 238 M⁻¹ s⁻¹ | Km [8]: 6.53 ± 1.16 µM | kcat [8]: 172 ± 41.3 s⁻¹ | kcat/Km [8]: 2.76e+07 M⁻¹ s⁻¹ | Km [9]: 14.41 ± 3.68 µM | kcat [9]: 209 ± 16.9 s⁻¹ | kcat/Km [9]: 1.53e+07 M⁻¹ s⁻¹ | Km [10]: 28.09 ± 1.82 µM | kcat [10]: 2.83 ± 0.19 s⁻¹ | kcat/Km [10]: 101000 M⁻¹ s⁻¹ | Km [11]: 69.09 ± 19.31 µM | kcat [11]: 2.1 ± 0.17 s⁻¹ | kcat/Km [11]: 31600 M⁻¹ s⁻¹ | Km [12]: 49.21 ± 12.46 µM | kcat [12]: 2.64 ± 0.24 s⁻¹ | kcat/Km [12]: 55000 M⁻¹ s⁻¹ | Km [13]: 0.22 ± 0.12 µM | kcat [13]: 2.85 ± 1.04 s⁻¹ | kcat/Km [13]: 1.39e+07 M⁻¹ s⁻¹ | Km [14]: 33.74 ± 4.77 µM | kcat [14]: 250 ± 9.82 s⁻¹ | kcat/Km [14]: 7.53e+06 M⁻¹ s⁻¹ | Km [15]: 4.54 ± 0.53 µM | kcat [15]: 155 ± 13.3 s⁻¹ | kcat/Km [15]: 3.42e+07 M⁻¹ s⁻¹ | Km [16]: 22.65 ± 2.56 µM | kcat [16]: 324 ± 21.8 s⁻¹ | kcat/Km [16]: 1.44e+07 M⁻¹ s⁻¹ | Km [17]: 8.89 ± 2.31 µM | kcat [17]: 0.31 ± 0.06 s⁻¹ | kcat/Km [17]: 35500 M⁻¹ s⁻¹

— publication PMC9958556, “Genomic Distribution of Pro-Virulent cpdB-like Genes in Eubacteria and Comparison of the Enzyme Specificity of CpdB-like Proteins from Salmonella enterica, Escherichia coli and Streptococcus suis” (International Journal of Molecular Sciences, 2023)
